Source: patent US20070071745A1 (Hoffmann-La Roche, published 2007)
Numbering of substitutions follows the chain as printed. Names may count otherwise.

How the values were obtained:
human CD20 [1] = target: T1, human CD20 (human, UniProt P11836 1-297); assay: flow cytometry on Raji B-cell lymphoma cells (FIG. 11)
T1 construct: whole, on cells; also called human CD20 antigen; target antigen (CD20)
T1 sequence (looked up): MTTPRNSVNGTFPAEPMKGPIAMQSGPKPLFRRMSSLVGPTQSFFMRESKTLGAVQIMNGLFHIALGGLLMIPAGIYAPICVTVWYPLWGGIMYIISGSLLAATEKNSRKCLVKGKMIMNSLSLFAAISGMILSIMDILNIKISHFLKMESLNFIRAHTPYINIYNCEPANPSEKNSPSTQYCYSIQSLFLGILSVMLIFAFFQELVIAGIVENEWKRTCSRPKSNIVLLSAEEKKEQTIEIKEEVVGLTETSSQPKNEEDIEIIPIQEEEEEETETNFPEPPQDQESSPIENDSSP
Procedure: (§1) 200,000 cells in 180 μl FACS buffer (PBS containing 2% FCS and 5 mM EDTA) were transferred to 5 ml polystyrene tubes. Next, 20 μl of 10-fold concentrated anti-CD20 antibody samples (1-5000 ng/ml final concentration) or PBS only were added, and the tubes were incubated at 4° C. for 30 min. Subsequently, samples were washed twice with FACS buffer and pelleted at 300×g for 3 min. Supernatant was aspirated off and cells were taken up in 100 μl FACS buffer. Next, 1 μl anti-Fc-specific F(ab′)2-FITC fragments (Jackson Immuno Research Laboratories, USA) was added and the tubes were incubated at 4° C. for 30 min. Samples were washed twice with FACS buffer and taken up in 500 μl of FACS buffer containing 0.5 μg/ml PI for analysis by Flow Cytometry. Binding was determined by plotting the geometric mean fluorescence against the antibody concentrations.

human CD20 [2] = target: T1, human CD20; assay: flow cytometry on Raji B-cell lymphoma cells (FIGS. 2, 9 to 13)
Procedure: as §1

human CD20 [3] = target: T1, human CD20; assay: flow cytometry on Raji B-cell lymphoma cells (FIG. 2)
Procedure: as §1

human CD20 [4] = target: T1, human CD20; assay: flow cytometry on Raji B-cell lymphoma cells (FIG. 22)
Procedure: as §1

human CD20 [5] = target: T1, human CD20; assay: flow cytometry on Raji B-cell lymphoma cells (methods described above)
Procedure: as §1

human CD20 [6] = target: T1, human CD20; assay: flow cytometry on Raji B-cell lymphoma cells (FIGS. 2, 9 to 13); the same paragraph adds that the binding of B-HL11 to B-HL17 does not differ drastically in EC50 and stoichiometry
Procedure: as §1

B1: B-HH1 paired with the BKV1 humanized B-ly1 light chain (antibody, human IgG1, V domains shown)
VH: QVQLVQSGAEVKKPGSSVKVSCKASGYTFSYSWMSWVRQAPGQGLEWMGRIFPGDGDTDYAQKFQGRVTITADKSTSTAYMELSSLRSEDTAVYYCARNVFDGYWLVYWGQGTLVTVSS
VL: DIVMTQTPLSLPVTPGEPASISCRSSKSLLHSNGITYLYWYLQKPGQSPQLLIYQMSNLVSGVPDRFSGSGSGTDFTLKISRVEAEDVGVYYCAQNLELPYTFGGGTKVEIKR
notes: also called BHH1-BKV1
binding result (human CD20 [1]): binds

B2: BHH2-BKV1 humanized IgG1 B-ly1 anti-human CD20 antibody (antibody, V domains shown)
VH: B1 VH with T28A, S35N, A61N, Q62G, Q65K
VL: B1 VL
notes: Non-glycoengineered form; also called BHH2-BKV1-wt; humanized B-ly1
binding result (human CD20 [2]): binds

B3: B-HL12 (G9A, V48M) paired with the BKV1 light chain (antibody, human IgG1, V domains shown)
VH: EVQLVESGAGLVKPGGSLRLSCAASGFTFSYSWMNWVRQAPGKGLEWMGRIFPGDGDTDYNGKFKGRVTITADKSTSTAYMELSSLRSEDTAVYYCARNVFDGYWLVYWGQGTLVTVSS
VL: B1 VL
binding result (human CD20 [3]): binds

B4: B-HH9 with the BKV1 light chain (antibody, human IgG1, V domains shown)
VH: B1 VH with S16A, S35N, A61N, Q62G, Q65K
VL: B1 VL
binding result (human CD20 [4]): binds

B5: BHH2-A (V11L) paired with a BKV1 light chain (antibody, human IgG1, V domains shown)
VH: B1 VH with V11L, T28A, S35N, A61N, Q62G, Q65K
VL: B1 VL
binding result (human CD20 [5]): binds

B6: BHH2-B (K12V) paired with a BKV1 light chain (antibody, human IgG1, V domains shown)
VH: B1 VH with K12V, T28A, S35N, A61N, Q62G, Q65K
VL: B1 VL
binding result (human CD20 [5]): binds

B7: BHL8-BKV1 (antibody, human IgG1, V domains shown)
VH: B3 VH with A9G, M48V
VL: B1 VL
notes: also called BHL8-BKV1 wt
binding result (human CD20 [2]): binds

B8: BHL11-BKV1 (antibody, human IgG1, V domains shown)
VH: B3 VH with E1Q, A9G, M48V
VL: B1 VL
notes: also called B-HL11 (having the mutation E1Q)
binding result (human CD20 [6]): binds

B9: BHL13-BKV1 (antibody, human IgG1, V domains shown)
VH: B3 VH with A9G, L11V
VL: B1 VL
notes: also called B-HL13 (L11V, V48M)
binding result (human CD20 [3]): binds

B10: BHL14-BKV1 (antibody, human IgG1, V domains shown)
VH: B3 VH with A9G, V12K
VL: B1 VL
notes: also called B-HL14 (V12K, V48M)
binding result (human CD20 [3]): binds

B11: BHL15-BKV1 (antibody, human IgG1, V domains shown)
VH: B3 VH with A9G, G16S
VL: B1 VL
notes: also called BHL15-BKV1 W1; B-HL15 (G16S, V48M)
binding result (human CD20 [3]): binds

B12: BHL16-BKV1 (antibody, human IgG1, V domains shown)
VH: B3 VH with A9G, L20V
VL: B1 VL
notes: also called BHL16-BKV1 W1; B-HL16 (L20V, V48M)
binding result (human CD20 [3]): binds

B13: BHL17-BKV1 (antibody, human IgG1, V domains shown)
VH: B3 VH with A9G
VL: B1 VL
notes: also called BHL17-BKV1 W1; B-HL17 (V48M)
binding result (human CD20 [3]): binds

B14: B-HH8 with the BKV1 light chain (antibody, human IgG1, V domains shown)
VH: B1 VH with S16A, S30T, S35N, A61N, Q62G, Q65K
VL: B1 VL
binding result (human CD20 [4]): binds

B15: B-HH3 paired with the BKV1 humanized B-ly1 light chain (antibody, human IgG1, V domains shown)
VH: B1 VH with T28A, S35N, A61N, Q62G, Q65K, Y95L
VL: B1 VL
notes: also called BHH3-BKV1
binding result (human CD20 [1]): binds
